Patent publication US20250346890A1, “LEUKEMIA TREATMENT” (Deutsches Krebsforschungszentrum, priority 2019, published 2025)

Columns and labels:
ALK3RD = target: T1, ALK3RD (Homo sapiens, UniProt P36894, Q233D); assay: BRE reporter assay in HEPG2 cells with constitutively active ALK3; assay type: cell-based; settings: RSPO treatment
T1 construct: expressed in transfected cells; host or cells: HEPG2
Text: Alkaline phosphatase (AP) fusions with RSPOs (human RSPO1^ΔC-AP-pCDNA3, RSPO2^ΔC-AP-pCDNA3, RSPO2^ΔC-AP-pCS2+, RSPO3^ΔC-AP-pCDNA3, murine RSPO4^ΔC-pCDNA3) were generated by replacing the C-terminal domain (ΔC) by AP and used to produce conditioned media. Human RSPO2 wild-type (RSPO2), Furin1 and Furin2 deletion mutants (RSPO2^ΔFU), and TSP1 domain deletion mutant (RSPO2^ΔTSP) are ORFs lacking the C-terminal domain, C-terminally tagged with a Flag-tag and subcloned into pCS2+. R1-TSP^R2, R1-TSP^R2-AP and R1-TSP^R2-Flag plasmids were generated by fusion PCR and cloned in pCS2+. Conditioned media from all RSPO constructs were adjusted to equal concentration by western blot and AP activity measurement, and further validated by WNT reporter assay using HEK293T cells. The extracellular domain of ALK3 (ALK3^ECD) was subcloned in AP-pCS2+ for generating conditioned medium and used in in vitro binding assays. Constitutively active forms of ALK2,3,6 (ALK^QD) were generated by Gln-Asp mutations as described in Fujii et al. (1999), Mol Biol Cell 10, 3801-3813, doi: 10.1091/mbc.10.11.3801. HA-tagged ALK3 was a gift from Dr. D. Koinuma (Goto et al. (2007), J Biol Chem 282, 20603-20611, doi: 10.1074/jbc.M702100200). For Xenopus mRNA microinjection, Xenopus laevis BMP4-pCS2+, myc-tagged RSPO2^ΔC-myc-pCS2+, RSPO2^ΔFU-myc-pCS2+ and RSPO2^ΔTSP-myc-pCS2+ plasmids, DNALK3-pCS2+, membrane-RFP, EYFP-tagged human ALK3-pCS2+ were used for in vitro transcription. Human ZNRF3 and ZNRF3^ΔRING constructs were gifts from Dr. F. Cong (Novartis; Hao et al. (2012), Nature 485, 195-200, doi: 10.1038/nature11019), and ORFs were subcloned in flag-pCS2+ for in vitro transcription.
BRE luciferase assays were executed using 300,000 ml^−1 of HEPG2 cells in 24-well plates. PGL3-BRE-Luciferase (500 ng ml^−1) and pRL-TK-Renilla plasmids (50 ng ml^−1) were transfected using Lipofectamine 3000. […] Luciferase activity was measured with the Dual luciferase reporter assay system (Promega E1960). Firefly luminescence (BRE) was normalized to Renilla. […]

[1] = target: T2, extracellular domain of ALK3 (Homo sapiens, UniProt P36894); assay: In vitro binding assay RSPO / ALK3^ECD (Scatchard plot)
T2 construct: made in house; host or cells: HEK293T (conditioned medium)
Method: High binding 96-well plates (Greiner M5811) were coated with 2 μg ml^−1 of recombinant human RSPO1 (Peprotech 120-38), RSPO2 (Peprotech 120-43), RSPO3 (Peprotech 120-44) or FGF8b (Peprotech 100-25) recombinant protein reconstituted in bicarbonate coating buffer (50 mM NaHCO3, pH 9.6) overnight at 4° C. Coated wells were washed three times with TBST (TBS, 0.1% Tween-20) and blocked with 5% BSA in TBST for 1 hour at room temperature. 1.5 U ml^−1 of ALK3^ECD-AP or control conditioned medium was incubated overnight at 4° C. Wells were washed six times with TBST and bound AP activity was measured by the chemiluminescent SEAP Reporter Gene Assay kit (Abcam ab 133077). For ZNRF3-ALK3 binding assay, plates were coated with recombinant human ZNRF3 Fc Chimera protein (R&D systems 7994-RF). ALK3^ECD-AP was preincubated with RSPO2-Flag, RSPO2^ΔTSP-Flag conditioned medium or recombinant RSPO protein prior to treatment. Control conditioned medium and vesicles were used as control. […] Statistical analyses show unpaired t-tests.

T1 sequence (P36894 24-532 Q233D): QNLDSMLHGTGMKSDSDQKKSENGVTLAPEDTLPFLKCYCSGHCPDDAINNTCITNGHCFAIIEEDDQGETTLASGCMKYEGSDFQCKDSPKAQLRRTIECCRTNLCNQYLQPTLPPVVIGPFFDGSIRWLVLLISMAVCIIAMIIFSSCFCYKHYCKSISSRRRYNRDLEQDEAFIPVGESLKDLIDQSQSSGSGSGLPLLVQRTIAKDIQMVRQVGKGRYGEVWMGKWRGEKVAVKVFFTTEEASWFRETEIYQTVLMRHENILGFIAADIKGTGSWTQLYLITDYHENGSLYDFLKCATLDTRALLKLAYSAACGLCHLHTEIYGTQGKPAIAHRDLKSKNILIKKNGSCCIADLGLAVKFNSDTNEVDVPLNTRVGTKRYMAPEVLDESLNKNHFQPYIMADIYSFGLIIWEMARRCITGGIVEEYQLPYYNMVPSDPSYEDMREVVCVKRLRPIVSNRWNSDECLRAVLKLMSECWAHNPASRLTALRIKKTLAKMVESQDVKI
T2 sequence (P36894 24-152 limits assumed): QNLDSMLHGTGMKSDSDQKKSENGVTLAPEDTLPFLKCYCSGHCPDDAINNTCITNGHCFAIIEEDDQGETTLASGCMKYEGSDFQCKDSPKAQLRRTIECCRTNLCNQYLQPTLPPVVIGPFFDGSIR

B1: RSPO2: human R-spondin 2 protein (SEQ ID NO:1); conditioned medium or recombinant (Peprotech 120-43) (protein, listed as Homo sapiens)
chain: MQFRLFSFALIILNCMDYSHCQGNRWRRSKRASYVSNPICKGCLSCSKDNGCSRCQQKLFFFLRREGMRQYGECLHSCPSGYYGHRAPDMNRCARCRIENCDSCFSKDFCTKCKVGFYLHRGRCFDECPDGFAPLEETMECVEGCEVGHWSEWGTCSRNNRTCGFKWGLETRTRQIVKKPVKDTILCPTIAESRRCKMTMRHCPGGKRTPKAKEKRNKKKKRKLIERAQEQHSVFLATDRANQ
B1 was tested, and the “BMP signaling induced by constitutively active ALK3” value (ALK3RD) was “specifically inhibited” and the Kd [1] was about 4.8 nM.
